The text below walks through data of publication PMC6134094 (mBio, 2018).

This assay concerns the target T1, cleaved Ebola virus (EBOV) glycoprotein GPCL (Ebola virus (Zaire ebolavirus), UniProt Q05320).
T1 construct: copies: 3 + 3
The experiment in a line: crystal structure. Particulars: both partners purified.

B1: ADI-15878 fragment antigen binding (Fab) (Fab, V domains shown)
VH: QVQLVQSGVTLVQPGGSLRVSCAASGFTFSSYAMSWVRQAPGKGLEWVSAISGLGGSTYYADSVKGRFTISRDNSKNTLYLQMNSLRAEDTAVYYCAKDHRVWAAGYHFDYWGQGALVTVSS
VL: DIVLTQSPSTLSASVGDRVTITCRASQSISSWLAWYQQKPGEAPKLLISDASSLESGVPSRFSGSGSGTEFTLTISSLQPDDFATYYCQQYYSSPTFGGGTKVEIK
notes: also called ADI-15878 Fab
With B1, the binding result is “binds”.
